Data from paper PMC4995436, “Characterization of a novel low-temperature-active, alkaline and sucrose-tolerant invertase” (Scientific Reports, 2016).

Substrate: OC[C@H]1O[C@@](CO)(O[C@H]2O[C@H](CO)[C@@H](O)[C@H](O)[C@H]2O)[C@@H](O)[C@@H]1O
Test: initial-rate kinetics, DNS reducing sugar assay, Michaelis-Menten fit
Assay type: biochemical, Bacillus sp. HJ14
Details: 30 °C, McIlvaine buffer pH 8.0, 1.5-36.5 mM sucrose
Text: initial-rate kinetics, DNS reducing sugar assay, Michaelis-Menten fit on rInvHJ14 (InvHJ14)

B1: rInvHJ14 (InvHJ14) (Bacillus sp. HJ14) (protein)
chain: MTTTDAALRQKIADRIRNYEHLVKKDVYRQHFHLMPPVGLLNDPNGLIQWKGIYHVFYQWQPFKTGHGAKFWGHYTSTDLVNWQHEEAALAPSDWFDQNGCYSGSAFIDDGQMHVMYTGNVRDEQGNRETYQCLAVSEDGIHFQKKGVVATLPEGFTAHFRDPKVWKRNGQWYMVLGAQSLDLKGHLVLFTSDTLDNWTFQGTIAGSGKNGLDNFGYMWECPDLFELDGRDVLIVSPQGLEPDGLKYHNTHQSGYFVGTLDDHSYQYTHGAFEELDRGFDFYAQQTFLDESGRRLLIGWMGVPDQGEEHHPTISYQWIHCLTIPRELRLDEDGHLIQKPVSELQSMRTNEQEHVFHIKRSVHSIPVEDITSAEVFIDQIDTQKGFECCIRAAARIIYDKEEGKLTLERDRFEDRSKEVREAVIEELHDLHIFIDSSSIEIFVNGGREVFTARYFPSPGNKSISISGRNETKLKLKAWHLQREADQ
notes: pEASY-E2 vector, E. coli BL21 (DE3), Ni-NTA purified, approximately 58 kDa on SDS-PAGE
**Q.** For B1, which Km is on record?
**A.** Its Km is 62.9 mM.

**Q.** And the Vmax?
**A.** Its Vmax is 772 µmol/min/mg.

**Q.** And the kcat?
**A.** Its kcat is 746 s⁻¹.

**Q.** And the kcat/Km?
**A.** The kcat/Km was 11900 M⁻¹ s⁻¹.
